Publication PMC3457783

Target: TRα1PV (mutated thyroid hormone receptor α1 carrying the PV mutation) (UniProt P10827)
Test: co-IP

fold NCoR1 co-precipitated relative to TRβ1PV (before induction): 1.6 fold
fold NCoR1 co-precipitated relative to TRβ1PV (day 6 after induction): 2 fold
Substance: nuclear receptor corepressor, NCoR1 (from UniProt Q60974 1-2453) (natural protein)
